Reference: the nanobody polyreactivity screen of Harvey et al. (2022)

Assay: yeast display, Sf9 membrane polyspecificity reagent, FACS + sequencing; frameworks hold sequencing errors
Method in brief: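 In a synthetic yeast display library (Saccharomyces cerevisiae BJ5465), nanobody expression was induced with galactose for 36–48 hours. FACS gates were set low and high (top ~1%) using anti-HA fluorescence for expression and streptavidin fluorescence for binding of the Sf9 membrane reagent. Each polyreactivity label is drawn from the gate of origin.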

Sequence	polyreactivity (PSR sort gate)
QVQLVESGGGLVQAGGSLRLSCAASGSTFDFNAMGWYRQAPGKERELVAAITGSGGSTDYADSVKGRFTISRDNAKNTVYLQMNSMKPEDTAVYYCNAGKTIDYRDGVGYDHWGQGTQVTVSS	low polyreactivity
QVHLVESGGGLVQAGASLRLSCAASGFTFGVNAMGWSRQAPGKERELVAVITSGGNTYYADSVKGRFTISRDNAKNTVYLHMNSLNPEDTAVYYCAAYGRASWERDYWGKGTQVTVSS	low polyreactivity
QVQLVESGGGLVQAGGSLRLSCAASGIIFSHNVMGWYRQAPGKERELVAAITYSGGSTYYADSVKGRFTISRDNAKNTVYLLMNSLKPEDTAVYYCNALGVSRRDYDYWGQGTQVTVSS	low polyreactivity
QVQLVESGGGLVQAGGSLRLSCAASGSTFGKYAMGWSRPAPGKERELVAAITVNAGRTYYADSVKGRFTISRDNAKNTVYLQMNSLKPEDTAVYYCNADFFTIYDYWGQGTQVTVSS	high polyreactivity
QVQLVESGGGLVQAGGSLRLSCAASGSIFVSNAMGWYRQAPGKERELVAAISGGRSTYYADSVKGRFTISRDNAKNTVYLQMNSLKPEDTAVYYCAKKGGHRTYGYDSWGQGTQVTVSS	low polyreactivity
QDQLVESGGGLFQEGGSLRLSCSASGSTFWVNTIRWYRQAPGKATELVADISSGGNTYYAHSVKGRFTISRDNAKNTVYLQMNSLKTEDTAVYYCNADPFTRWVIRDDYGGQGTQVTVSS	low polyreactivity
QVQRVESGGGLVQAGGSLRLSCAASGSIFGPNAMGWYRQAPGKERELVAAITLSGGSTYYADSVKGRFTISRDNAKNTVYLQMNSLKPEDTAVYYCAAEYYQTTYVWWTYDYYWGQGTQVTVSS	low polyreactivity
QVQLVESGGGLVQAGGSLRISCAASGFTYRKNAMGWDRQAPGKERELVAAITQSSGRTYYADTVKGRFTISRDNAKNTVYLQMNSLKPEDTAVYYCAARGVWPEYDYWGQGTQVNVSS	low polyreactivity
QVQLVESCGGLVQAGGSLRLSCAASGRTFTDYVMGWYRQAPGKERELVAGIRRSGGTYYADSVKGRFTISRDNAKNTVYLQMNSLKPEDTAVYYCAAPVQTGPDPEYDYWGQGTQVTVSS	low polyreactivity
QVQLVESGGGLVQAGGSLRLSSAASGFTFASYAMGWYRQAPGKERELVAAIDSDDSTNYADSVKGRFTISRDNAKNTVYLHMNSLKPEDTSVYYCAADEGPYYGIYEYYYWGQGTQVTVSS	high polyreactivity
QVQLVESGGGIVQAGGSLRLSCAASGRIFYINAMGWYRQSPGKERELVAAITGSGGRTYYADSVKGRFTISRDNAKNTVYLHINSLKPEDTAVYYCAAQKKHYSYSYWYDSLGQGTQVTVSS	high polyreactivity
QVQLVESGGGLVQAGGSLRLSCAASGRTFRSNAMGWNIQAPGKERELVAAITRGRRTYYADSVKGRFTISRDNAKNTVYLQMNSMKPEDTAVYYCAGVGRYACRLDYWGQGTQVTVSS	high polyreactivity
QVQLVESAGGLVQAGGSLRLSCAASGNTFRYYAIGWYRQAPGKERELVAVITTRGGSTNYADSVKGRFTISRDNAKNTVYLQMNRLKPEVTAGYYCNTLRHYGPGYDSGGQGTQVTVSS	low polyreactivity
QVQLVESGGGLVQAGGSLRLSCAASGSTFGNYDIGWYRQAPGKERELVAAISFSGGSTYYADSVKGRFTISRDNAKNTVYLQMNSLIPEDTAVYYCAARSNYRMDYWGQGTQVTVSS	high polyreactivity
QVQLVESGGGLVQAGGSLRFSCAASGSIFYVYAMGWYRQAPGKERELVAAIRWSGGSTYYADSVKGRFTISRDNAKKSVYLQMNSLKPEDTAVYYCAADAIPDSVCYWEYDYWGQGTQVTVSS	low polyreactivity
QVQLVESGGGLVQAGGSLRLSCAASGSIFYTYAMGWYRQAPGKERELVAGISWRGGSTYYADSVKGRYTISRDNAKNTVYLQMNSLNPEDTAVYYCAASYFWDRVPGRGIHDYWGQGTQVTVSS	high polyreactivity
QVQLVESGGGLVQAGGSLSLTCAASGSIFRYYAMGWYRQAPGKERELVADITSSGGSTYYADSVKGRFTISRDNAKNTDYLQMNSLKPEDTAVYYCAALYWFYVYPFTEYDYWGQGTQVTVSS	low polyreactivity
QVQLVESGGCLVQAGGSLRLSCAASGFTFTTYAMGWYRQAPGKEREFVAALTKRGGRTYYADSVKGRFTISRDNAKITVYLQMNSLKPEDTAVYYCNKVVHSFPFPYRYDMDYWGQGTQVTVSS	high polyreactivity
QVQLVESGGGLVQAGGSLRLSCAASGIIFAGYAMGWYRQAPGKVRELVAAISGSGGRTYYADSVKGRLTISRDNAKNTVYLQMNSLKPEDTAVSFCAAEGRSEWGGDYYYGGQGTQVTVSS	low polyreactivity
QVQLVESGGGLVQAGGSLRLSCAASGRIFGRNPMGWYRQAPGKERELVAAITSRGTRTYYADSVKGRFTISRDNAKNTVYLQMISLKPEDTAVYYCNAAYYHSSSYPDYDYWGQGTQVTVSS	high polyreactivity
QVQLVESGGGLVQAGGSLRLSCAASGSSFGYNAMGWYRQAPGKERELVAAISRSGSTYYADSVKGRFTISRDKAKNTVYLHMNSLKPEDTAVYYCDARLWWTFCEYDYWGQGTQVTVSS	high polyreactivity
QVQLVESGGGLVQAGGSLRLSCAASGRTFSRYAMGWYRQAPWKERELVAAITSRGGNTYYADSVKGRFTISRDNAKNTVYLQMNSLIPEDTAVYYCNKVVRRGGGKNPDYDYWGQGTQVTVSS	high polyreactivity

Sequence	polyreactivity (PSR sort gate)
QVHLVESGGPLVQAGGSLRLSCAASGYTFWGNAMGWYRQAPGKERELVAGITGSGVSTYYADSVKGRFTISRDNAKNTVYLQMNNLKPEDTAVYYCARRVVFAHKYATSYFLLEYGYWGQGTQVSVSS	low polyreactivity
QVQLVESGGGLVQAGGSLRLSCAASGSIFVVNAMGWYRPAPGKERELVAAINWSDGSTYYADSVKGRFTISRDTAKNTVYLQLTSLKPEDTAVDYCAAEVPYFYFEGWNYDYWGQGTQVTVSS	high polyreactivity
QVQLVESGGGLVQAGGSLRLSCAPSGRIFPRNAMGWYRQAPGKERELVAAITKSGGSTYYADSVKGRFTISRDNAKNTVYLQMNSLKPEDTAVYYCNAVQYRNYYWGQGTQVTVSS	high polyreactivity
QVQLEESGGGLVQAGGSLRLSCAASGFIFGPYAMGWYRQAPGKERELVAAMSSSGGSTSYEDSVKGRFTISRDNAKNTVYLQMNSLKPEDTAVYYCAARGRYRLYSNYYDYWGQGTQVNVSS	high polyreactivity
QDQLVESGGGLDQAGGSLRLSGAASGGILPRYAMGWYRQAPGKERELVAGITRGGSTYYADSVKGRFSISRDNAKNTVYLQMNSLKPEDTAVYYCAKYGYQTGIFYYWGQGTQVTVSS	high polyreactivity
QDQLEDSGGGLVQAGGSLRLSCAASGRTFTLYAMGWSRQAPGKERELVASISRSGGSTYYADSVKGRFTISRDNAKNTVYLQMNSVKPEDTAVDYCAARRFAWLFIYDYWGQGTQVTVSS	high polyreactivity
QVQLVYSGGGLVQAGGSLRLSCAASGRTFSWYAMGWYRTAPGKESELVAAITWSGGSTYYADSVKGRFTISRDNAKNTVYLEMNSLKPEDTAVYFCNALRYSNRRYYSTGPHDYWGQGTHVTVSS	high polyreactivity
QVQLVESGGGLVKAGGSLRLSCAASGFTFRRNAMGWYRQAPGKERELVAAITYNGGTTYYADSVKGRFTISRDNAKNTVYLQMNSLKPEDTAVDYCNAPYGRQGYDYWGQGTQVTVSS	low polyreactivity
QVQLVESGGGLVQAGGSLRLSCAASGSTFHFYAMGWYRQAPGKERELVASITSRGGNTHYADSVKGRFTISRDNAKNTVYLQMNRLKPEDTAVYYCAARGGWYGTYDYLGQGTQVTVSS	low polyreactivity
QVQLVESAGGLVQAGGSLRLSCAASGLTFYVNAMGWYRQAPGKERELVAAITWSGGSTHYADSVKGRFTISRDNAKNTVYLQMNSLKPEDTAVYYCARATYQHSYVAYDYWGQGTQVTVSS	low polyreactivity
QVQLVESGGGLVQAGGILRLSCAASGSTFDPNVMGWYRQAPGKERELVAAITWSGGSTSYADSVKGRFTISRDNAKNTVYLQMNSLKPEDTAVYYCAADWHSWRWGYYYWGQGTQVTVSS	low polyreactivity
QVQLVESGGGLVQAGGSLRLSCAASGFIFWANAMGWYRQAPGKERELVAAITWRNGRTYYADSVKGRFTISRDNAKNTVYLQMNSLKPEDTAVYYCAAPGSYARGTGRDYWGQGTQVTVSS	high polyreactivity
QVQLVESGGGLVQAGGSLRLSCAASGFIFRWYAMGWYRQAPGKERELVAAISRSGDSTYYADSVKGRFTISRDNAKNTVYLQMNSLKPEETAVYYCAADDRYYTYGYDYWGQGTQVTVSS	low polyreactivity
QVQLVESGGGLVQAGGSLRLSCAASGSIFRRTTQGGYRQAPGKERELVAAITYRGGSTYYADSVKGRFTISRDNAKNTVYFQMHSLKPEDTAVYYCARYHWYYPVSKSDSWGQGTQVTVSS	high polyreactivity
QVQLVESGGGLVQAGGSLRLSCAASGIYGFYAMGWYRQPPRKQRELVAAISSVTSTYYADSVKGRFTISRDNAKNTVYLQMNSLKPEDTAVYYCNAYLYSGGLSYDYWGQGTQVTVSS	low polyreactivity
QVQLVESGGGLVQAGGSLRLSCAASGFIFLYYAMGWNTQSPGKERELVADISRGADTKYADSVKGRFTISRDNAKNTVYLQMNSLKPEDTAVYYCATDITTFWFPYPGVELGYWGQGSQVTVSS	low polyreactivity
QVQLVESGGGLVQAGGSLRLSCAASGRIFLYYAMGWYRQAPGKERELVAAITSDGSTNYADSVKGRFTISRDNAKNTVYLQMNSLKPEDTAVYYCARRIQTYHYHYDYWGQGTQVTVSS	low polyreactivity
QVQLVESGGGLVQAGGSLPLSCAASGFIFGTNTMGWYRQAPGKEREMVAAITSVGSTNYADSVKGRFTISRDNAKNTVYLQMNSLKPEDTAVYYCPATLYYQYGGDYWGQGTQVTVSS	low polyreactivity
QVQIEESGGGLVQAGGSIRLSCAASGRIFFLNAMGWYRQAPGKERELVAAISKSGGSTYYADSEKGRFTISRDNAKNTGFLQMNSLKPEDTAVYYCAARLHRFIRVDFGYDYWGQGTQVTVSS	high polyreactivity
QVQLVESGGGLVQAGGSLRLSCAASGRIFRSNAMGWYSQAPGKERELVAAITLRGGSTFYADSVKGRFTISRDNAKNTVYLQMNSLKPEDTAVYYCAARSYWSRSIWSPYDYWGQGTQVTVSS	high polyreactivity
QVQLVESGGGLVQAGGSLRLSCAASGFIFNRNAMGWYRQAPGKERELVAGINSGGTTKYADSVKGRFTISRDNAKNTVYLQMISLIPEDTAVYYCAKPLNYRYYVGYPLDYWGQGTQVTVSS	low polyreactivity
